Tests used:
GST-RhoBL63 [1] = biological target: T1, GST-RhoBL63 (UniProt P62745 1-196, L63); experiment: SPR
GST-RhoAL63 [2] = biological target: T2, GST-RhoAL63 (UniProt P61586 1-193, L63); experiment: SPR
GST-RhoBL63 [3] = biological target: T1, GST-RhoBL63; experiment: SPR; remark: listed apart in the source
GST-RhoAL63 [4] = biological target: T2, GST-RhoAL63; experiment: SPR; remark: listed apart in the source
6xHis-RhoBL63 = 6xHis-RhoBL63 (UniProt P62745 1-196, L63); experiment: ELISA
6xHis-RhoAL63 = 6xHis-RhoAL63 (UniProt P61586 1-193, L63); experiment: ELISA
Chain of 6xHis-RhoAL63 (P61586 other isoform, or with tags, fused parts or gaps L63): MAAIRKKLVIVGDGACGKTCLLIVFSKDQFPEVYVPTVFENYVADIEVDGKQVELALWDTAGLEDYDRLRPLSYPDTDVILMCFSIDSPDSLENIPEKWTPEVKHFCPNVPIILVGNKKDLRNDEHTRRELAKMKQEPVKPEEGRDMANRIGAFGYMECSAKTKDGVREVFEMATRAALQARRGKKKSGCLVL

T2 sequence (P61586 other isoform, or with tags, fused parts or gaps L63): as above
T1 sequence (P62745 other isoform, or with tags, fused parts or gaps L63): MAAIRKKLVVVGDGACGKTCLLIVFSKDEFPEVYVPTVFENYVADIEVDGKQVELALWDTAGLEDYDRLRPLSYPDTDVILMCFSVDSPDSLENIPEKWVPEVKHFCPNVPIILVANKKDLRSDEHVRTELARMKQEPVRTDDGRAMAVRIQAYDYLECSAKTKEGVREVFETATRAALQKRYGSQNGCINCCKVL
Chain of 6xHis-RhoBL63 (P62745 other isoform, or with tags, fused parts or gaps L63): as above

B1: scFvE3 (soluble, in fusion with the N-terminal domain of the phage P3 protein) (scFv, V domains shown)
VH: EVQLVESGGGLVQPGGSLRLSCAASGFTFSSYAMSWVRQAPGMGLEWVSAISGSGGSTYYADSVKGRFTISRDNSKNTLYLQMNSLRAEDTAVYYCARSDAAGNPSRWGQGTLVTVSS
VL: SSELTQDPAVSVALGQTVRITCQGDSLRSYYTSWYQQKPGQAPVRVIYGKNNRPSGVPDRFSGSSSGNTASLTITGAQAEDEADYYCNSRDSSGNHAYVFGGGTKLTVL
Work on B1 yielded a koff (GST-RhoBL63 [1]) of 0.000683 s⁻¹, a koff (GST-RhoAL63 [2]) of 0.0176 s⁻¹ and a Kd (GST-RhoBL63 [3]) of 3.14 nM. The Kd (GST-RhoAL63 [4]) was 36.9 nM.

B2: scFvD10 (soluble, in fusion with the N-terminal domain of the phage P3 protein) (scFv, V domains shown)
VH: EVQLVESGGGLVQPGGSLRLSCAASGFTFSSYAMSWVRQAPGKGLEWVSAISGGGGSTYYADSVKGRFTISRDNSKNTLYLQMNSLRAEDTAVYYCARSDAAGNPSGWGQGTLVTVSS
VL: SSELTQDPAVSVALGQTVRITCQGDSLRSYYASWYQQKPGQAPVLVIYGKNNRPSGIPDRFSGSSSGNTASLTITGAQAEDEADYYCNSRDSSGNHAYVFGGGTKLTVL
For B2, the koff (GST-RhoAL63 [2]) was 0.00297 s⁻¹ and the Kd (GST-RhoAL63 [4]) was 39.6 nM.

B3: scFvA5 (soluble, in fusion with the N-terminal domain of the phage P3 protein) (scFv, V domains shown)
VH: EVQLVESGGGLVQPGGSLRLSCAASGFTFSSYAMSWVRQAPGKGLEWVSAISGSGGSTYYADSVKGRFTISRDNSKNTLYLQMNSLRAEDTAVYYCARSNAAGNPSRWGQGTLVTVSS
VL: SSELTQDPAVSVALGQTVRITCQGDSLRSYYASWYQQKPGQAPVLVIYGKNNRPSGIPDRFSGSSSGNTASLTITGAQAEDEADYYCNSRDSSGNHAYVFGGGTKLTVL
Work on B3 yielded a Kd (6xHis-RhoBL63) of 24 nM and a Kd (6xHis-RhoAL63) of 24.5 nM.

B4: scFvF7 (soluble, in fusion with the N-terminal domain of the phage P3 protein) (scFv, V domains shown)
VH: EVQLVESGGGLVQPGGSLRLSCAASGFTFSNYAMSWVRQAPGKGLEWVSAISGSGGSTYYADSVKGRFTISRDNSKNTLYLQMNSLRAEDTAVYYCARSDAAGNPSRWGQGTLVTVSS
VL: SSELTQDPAVSVALGQTVRITCQGDSLRSYYASWYQQKPGQAPVLVIYGKNNRPSGIPDRFSGSSSGNTASLTITGAQAEDEADYYCNTRDSSGNHAYVFGGGTKLTVL
With B4 the koff (GST-RhoBL63 [1]) was 0.000414 s⁻¹, the koff (GST-RhoAL63 [2]) was 0.000248 s⁻¹ and the Kd (GST-RhoBL63 [3]) was 3.39 nM. It also gave a Kd (GST-RhoAL63 [4]) of 2.35 nM.

Source: PMC4218836 (2014)
